From patent publication US20090075340A1 (Novo Nordisk, published 2009) come the findings set out here.

In the assay the target is KIR2DL1 expressed on YTS-2DL1 NK cells (human, UniProt P43626 22-348). As to the kind of experiment: cell-based or functional assay.
Sequence of KIR2DL1 expressed on YTS-2DL1 NK cells (P43626 other isoform, or with tags, fused parts or gaps limits assumed): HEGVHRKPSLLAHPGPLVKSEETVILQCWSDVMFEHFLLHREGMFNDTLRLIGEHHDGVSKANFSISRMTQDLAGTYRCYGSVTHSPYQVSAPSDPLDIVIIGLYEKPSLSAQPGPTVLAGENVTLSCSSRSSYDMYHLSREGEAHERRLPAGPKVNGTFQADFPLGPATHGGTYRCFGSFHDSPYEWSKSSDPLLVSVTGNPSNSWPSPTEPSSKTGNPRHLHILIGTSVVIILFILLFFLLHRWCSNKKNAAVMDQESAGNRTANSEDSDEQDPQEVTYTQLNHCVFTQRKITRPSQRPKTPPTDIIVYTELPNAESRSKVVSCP

B1: murine IgG1 monoclonal antibody 1-26F117-A3 (antibody, V domains shown)
VH: EVQLQQSGPELVKPGASVKISCKASDYSFTGYFMNWVMQSQEKSLEWIGRINPFNGDAFYNQKFKGKATLTVDKSSNTAHMELRSLTSEDSAVYYCARLDYRGYFFDYWGQGTTLTVSS
VL: DIVMTQSQKFMSTTVGDRVSITCKASQSVGSAVGWYQQKPGQSPKLLIYSASTRYTGVPDRFTGSGSGTDFTLTITNMQSDDLADYFCHQYSRYPLSFGSGTKLEMKR
With B1, the “killing of LCL 721.221-Cw4 cells by YTS-2DL1, fold over killing in the absence of mAb's” value was 3.7 fold.

B2: murine IgG1 monoclonal antibody 1-26F117-A4 (antibody, V domains shown)
VH: QVQLKESGPGLVAPSQSLSITCTVSGFSLTDYGVSWVRQPPGKGLEWLGLIWGDGRTNYHSALISRLSISKDNSKSQVFLKLNSLQIDDTATYYCARRGAMDYWGQGTSVTVSS
VL: B1 VL
Turning to B2, the “killing of LCL 721.221-Cw4 cells by YTS-2DL1, fold over killing in the absence of mAb's” value is approximately 2 fold.
